The series is described as follows: protein stability index of a GFP-peptide fusion (GPS, HEK-293T) (PSI 1-6); higher = more stable.
Setting [1] is: treatment: DMSO, c terminus: a fixed tail appended.
Setting [2] is: treatment: MLN4924 1 uM, 8 h, c terminus: a fixed tail appended.

± gives the standard deviation.
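Note: 24-mer peptide tiles fused after GFP, lentivirally expressed, FACS-sorted into six equal bins by GFP/DsRed ratio, decoded by Illumina sequencing, PSI is the read-weighted mean bin number.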

ESKDYLSLYLLLVSCPKSEVRAKF [SPOPL] showed a protein stability index under setting [1] of 2.92 ± 0.38 and a protein stability index under setting [2] of 2.82 ± 0.63.
As for SIQSLTLEWNSLGTWDDAFATFCG [LRRC45], the protein stability index reads like this: under setting [1], 2.25 ± 0.25; under setting [2], 2.08 ± 0.53.
For SPRRVGFVGAGRMAGAIAQGLIRA [PYCR3], in that order: 2.66 ± 0.15 and 2.78 ± 0.14.
In the case of YPCLEKPRIWSLAHTATASAVEGA [IRX6], the protein stability index reads like this: under setting [1], 2.8 ± 0.41; under setting [2], 2.98 ± 0.49.
On to EEFNVLEMEVMRRQLYAVNRRLRA [FATE1], for which the protein stability index by setting is: under setting [1], 2.92 ± 0.21; under setting [2], 3.1 ± 0.5.
For DLKLGNFFINEAMELKVGDFGLAA [PLK2], in that order: 2.14 ± 0.078 and 2.63 ± 0.17.
As to CSWKGATKQRIQDQKVPYIFRDNQ [CHIT1], the protein stability index turned out to be 2.87 ± 0.24 under setting [1] and 3.14 ± 0.62 under setting [2].
Consider KPSVDTEGPALVEIDRSVENTLLN [MIA2], for which the protein stability index runs as follows: under setting [1], 4.99 ± 0.23; under setting [2], 5.07 ± 0.26.
For PPPTTAPHKERYFDRVDENNPEYL [ADD1], in that order: 5.06 ± 0.17 and 5.14 ± 0.17.
As to GGRRRPPASSRNRSPSGSLRSARG [RBMY1A1], the protein stability index was 5.16 ± 0.28 under setting [1] and 5.2 ± 0.18 under setting [2].
Turning to LSLLDNNIPGNSTLITAVELERFV [FBXO33], the protein stability index was found to be 2.44 ± 0.95 under setting [1] and 2.36 ± 0.15 under setting [2].
RCGKHFGTILNYLRDGAVPLPESR [KCTD10]: the protein stability index stood at 2.27 ± 0.3 under setting [1] and 2.38 ± 0.32 under setting [2].
Take DQLFMQEKARQLLGRLKPSHTSRT [MYBL2]: the protein stability index by setting is: under setting [1], 3.29 ± 0.27; under setting [2], 3.76 ± 0.43.
With LSPPEQAAQPMQPLPESLASLHPS [PLAGL1], the protein stability index reads like this: under setting [1], 5.12 ± 0.16; under setting [2], 4.93 ± 0.31.
Taken in the same sequence, the figures for ERCLHMFLQEEAIDRNYVPGKSLA [SNX12] were 2.97 ± 0.31 and 3.05 ± 0.26.
For FIIFGTMEEMQNKAVVFFVFYLWS [HACD3], in that order: 2.8 ± 0.69 and 2.75 ± 0.13.
TEDSPLGTVVALLNVHDLDSEQNG [PCDHGA10]: the protein stability index was found to be 4.86 ± 0.18 under setting [1] and 4.94 ± 0.27 under setting [2].
In the case of NRDLRKASVTIQARAEQEEEFISN [CCDC6], the protein stability index came to 4.96 ± 0.26 under setting [1] and 5.05 ± 0.27 under setting [2].
Regarding EEENDYRNLDASPTYKGLLMSLQN [CEP70], the protein stability index by setting is: under setting [1], 3.67 ± 0.18; under setting [2], 3.63 ± 0.34.
The sequence CQSGYFSSMFSGSWKESSMNIIEL [GMCL1] returned a protein stability index under setting [1] of 2.53 ± 0.37 and a protein stability index under setting [2] of 2.34 ± 0.77.
KQKYFYKGGLVWDENSSDGRYVKE [CLK3] registered a protein stability index under setting [1] of 3.53 ± 0.2 and a protein stability index under setting [2] of 3.62 ± 0.043.
Consider ALSQLICFCRESRYMDQWVPVINL [GADD45A], for which the protein stability index runs as follows: under setting [1], 2.95 ± 0.45; under setting [2], 3.06 ± 0.76.
For the sequence VPVVTPTASTAPPVPATAPSPAPA [SNAP91], the protein stability index by setting is: under setting [1], 4.98 ± 0.17; under setting [2], 5.05 ± 0.11.
Regarding FFYGETVTDYFFTLVQREEPLRIL [CDS2], the protein stability index by setting is: under setting [1], 2.73 ± 0.66; under setting [2], 2.17 ± 0.46.
Consider LKTSEVTQHLPRECLPENLGGYVK [PTPN9], for which the protein stability index was 3.97 ± 0.38 under setting [1] and 3.73 ± 0.56 under setting [2].
Consider SPRRSLYKLVGSPPWKEAFRQRCL [RPAIN], for which the protein stability index is 2.27 ± 0.26 under setting [1] and 2.4 ± 0.23 under setting [2].
With EICLWGRHIFMGYLESETETTEAI [ACSBG2], the protein stability index by setting is: under setting [1], 2.55 ± 0.072; under setting [2], 3.05 ± 0.29.
ANPQYTVYSQASTMSIPVAMETDG [PPP2R5C]: the protein stability index is 4.26 ± 0.33 under setting [1] and 4.41 ± 0.21 under setting [2].
For APDDSKAQAHRIHIDPEIQDGSPT [PDLIM4], the protein stability index under setting [1] came out at 5.59 ± 0.23 and the protein stability index under setting [2] turned out to be 5.47 ± 0.12.
On to DGSYALNGEYTLMPSPTDVVLPGA [ADAMTS4], for which the protein stability index turned out to be 4.4 ± 0.2 under setting [1] and 3.87 ± 0.36 under setting [2].
With QAIEPQAIVQQVPAPSRMQMPQGN [SNX8], the protein stability index was found to be 4.64 ± 0.25 under setting [1] and 4.75 ± 0.22 under setting [2].
For REIKVTLVFEHVDQDLRTYLDKAP [CDK4], in that order: 2.65 ± 0.56 and 2.68 ± 0.72.
For EEENPGGCEDEYLVNPTCQVLVKD [ZER1], in that order: 5.54 ± 0.22 and 5.54 ± 0.22.
For FPPDLVFRADQRSGPRQLLTLYNP [MOSPD3], the protein stability index reads like this: under setting [1], 3.13 ± 0.67; under setting [2], 2.93 ± 0.29.
With VRYSDCCERVVINVSGLRFETQMK [KCNA4], the protein stability index was 2.31 ± 0.46 under setting [1] and 2.33 ± 0.37 under setting [2].
As to FQQLMVETCSCGYYLHPLPAGAEY [SCNN1D], the protein stability index reads like this: under setting [1], 2.6 ± 0.69; under setting [2], 2.8 ± 0.69.
As for GYTFDYAYDWVGRPIPTPVGSVHV [CSNK1G1], the protein stability index was determined as 2.13 ± 0.44 under setting [1] and 2.14 ± 0.4 under setting [2].
Regarding EDYPAALPNHKPKGTFKDYVRDRA [ETS1], the protein stability index by setting is: under setting [1], 4.57 ± 0.1; under setting [2], 4.62 ± 0.32.
For VTPEAKDLINKMLTINPAKRITAS [CAMK2D], the protein stability index is, setting by setting: under setting [1], 3.29 ± 0.29; under setting [2], 3.33 ± 0.2.
For the sequence LCEYFSQHLGEYENVLAALEGLNL [NECAB1], the protein stability index came out at 2.61 ± 0.35 under setting [1] and 2.63 ± 0.22 under setting [2].
Regarding SASSSTTCCESTQRSVSDVASGST [IRX6], the protein stability index reads like this: under setting [1], 5.12 ± 0.26; under setting [2], 5.26 ± 0.11.
Regarding RLTQYMDGSGMPKTMQSEETRVWH [CAMK2D], the protein stability index reads like this: under setting [1], 3.44 ± 0.47; under setting [2], 3.51 ± 0.19.
YQELLGLSFEQMTDAHVWNKSVTL [NLN]: the protein stability index reads like this: under setting [1], 2.37 ± 0.093; under setting [2], 2.3 ± 0.28.
In the case of MDSFKVVLEGPAPWGFRLQGGKDF [PDLIM7], the protein stability index worked out at 2.1 ± 0.24 under setting [1] and 2.52 ± 0.23 under setting [2].
For GERETRTPEELTILGETQEEEDEI [CLCN6], in that order: 5.79 ± 0.11 and 5.64 ± 0.37.
Regarding VKSIVVKGYNIWTGGPDACLRCWD [TLE6], the protein stability index is, setting by setting: under setting [1], 2.37 ± 0.3; under setting [2], 2.24 ± 0.43.
With LSRTNEELLWKLQTGDPTSPIKLS [MTUS2], the protein stability index was 3.49 ± 0.12 under setting [1] and 3.35 ± 0.25 under setting [2].
Regarding STSQGCAQPQGAPCCSSSPEEPLN [FEM1A], the protein stability index reads like this: under setting [1], 5.37 ± 0.23; under setting [2], 5.32 ± 0.15.
Consider LLRQLGRDAGATPSAAGAPASAPG [ANKRD9], for which the protein stability index runs as follows: under setting [1], 4.12 ± 0.4; under setting [2], 4.36 ± 0.15.
Regarding RIRSQIGNTESELKKLAEENPDLQ [GDAP1], the protein stability index reads like this: under setting [1], 5.42 ± 0.18; under setting [2], 5.39 ± 0.12.
MLIEELYAFMPARSQDPKKPSRV [CBY2]: the protein stability index reads like this: (treatment: DMSO, c terminus: native) 2.57 ± 0.46; (treatment: MLN4924 1 uM, 8 h, c terminus: native) 2.55 ± 0.17.
For NEARHNFGIVEIDGMLYILGGEDG [GAN], the protein stability index is 2.63 ± 0.37 under setting [1] and 2.72 ± 0.4 under setting [2].
RNLGKVVHYAKVQLRFQHSQDVSD [PLEKHN1]: the protein stability index worked out at 2.49 ± 0.44 under setting [1] and 2.6 ± 0.33 under setting [2].
Turning to ADDAAAVAAKCPRLSECSSPPDYL [TRIB1], the protein stability index reads like this: under setting [1], 5.03 ± 0.79; under setting [2], 5.22 ± 0.17.
Turning to DAVQTSLMDEGASSEKKRQSSADG [RBBP5], the protein stability index by setting is: under setting [1], 5.49 ± 0.26; under setting [2], 5.48 ± 0.19.
As to PKRCLKAREHFGTVKTHLTSLKTK [TSN], the protein stability index under setting [1] was 3.72 ± 0.32 and the protein stability index under setting [2] came out at 3.88 ± 0.34.
With LHRTFDPHFLRVPCWKITLFVIVP [MOG], the protein stability index is, setting by setting: under setting [1], 3.17 ± 0.56; under setting [2], 3.08 ± 0.63.
Turning to NYSIPSNVTNLEGGPGRQTTSPNV [ESR2], the protein stability index runs as follows: under setting [1], 4.66 ± 0.36; under setting [2], 4.68 ± 0.27.
For the sequence RSRGASQKKQKLEQKAAGSASAKR [FATE1], the protein stability index is, setting by setting: under setting [1], 5.07 ± 0.27; under setting [2], 5.06 ± 0.31.
Consider NIMNKEAFMNQEITKAFHVRKANR [RHOBTB1], for which the protein stability index was found to be 3.35 ± 0.18 under setting [1] and 3.45 ± 0.34 under setting [2].
For TDGMILGPEDLSYQIYDVSGESNS [LARP4], in that order: 4.71 ± 0.22 and 4.58 ± 0.37.
As for SGQRLGGYRTSAVASGLQFDVETR [WDFY2], the protein stability index under setting [1] is 3.82 ± 0.23 and the protein stability index under setting [2] stood at 3.74 ± 0.27.
For PPGHHAEQDAACGFCFFNSVAVAA [HDAC6], in that order: 2.88 ± 0.51 and 2.96 ± 0.68.
The sequence YDPKTNQWSSDVAPTSTCRTSVGV [KLHL20] returned a protein stability index under setting [1] of 2.86 ± 0.44 and a protein stability index under setting [2] of 3.04 ± 0.19.
On to ILNLTQALKDNKSPLHLVQMPPVI [PI4K2A], for which the protein stability index came to 2.54 ± 0.27 under setting [1] and 2.35 ± 0.23 under setting [2].
With DVAVHMPCLGHTFNAGIQQAFQLP [ZBED1], the protein stability index under setting [1] was determined as 2.53 ± 0.36 and the protein stability index under setting [2] turned out to be 2.8 ± 0.36.
With FGELRLGKNLYTNEYVAIKLEPIK [CSNK1G1], the protein stability index reads like this: under setting [1], 3.02 ± 0.94; under setting [2], 2.04 ± 0.47.
In the case of QNLVYYRFHRARWGLEEEDFQPRE [P3H4], the protein stability index by setting is: under setting [1], 2.38 ± 0.17; under setting [2], 2.25 ± 0.27.
With LSLCICGTAITSQYLAERYKVNTP [SLC35F2], the protein stability index reads like this: under setting [1], 2.83 ± 0.51; under setting [2], 2.63 ± 0.42.
In the case of GILRARRGEGIQAPSFSSYLYFLF [SOAT2], the protein stability index is, setting by setting: under setting [1], 2.29 ± 0.31; under setting [2], 2.11 ± 0.28.
With MAAAAEERMAEEGGGGQGDGGSSL [FBXO28], the protein stability index is, setting by setting: under setting [1], 5.45 ± 0.29; under setting [2], 5.57 ± 0.33.
With LLFAGSSLASQVHAAAVNGDKGAL [INVS], the protein stability index runs as follows: under setting [1], 2.61 ± 0.34; under setting [2], 2.76 ± 0.21.

These data come from the supplement of paper PMC10567573.
